Reference: patent publication US20260365696A1, “INHIBITORS OF PTP1B / NCK1 INTERACTION AND METHODS OF MAKING AND USING SAME” (Radella Pharmaceuticals LLC, priority 2023, published 2026)
Where two headings read alike, the source gives them in different places.

T1: NCK1 SH3-2 domain (human)
T1 chain: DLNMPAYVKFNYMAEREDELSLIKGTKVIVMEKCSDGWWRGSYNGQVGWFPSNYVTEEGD


How the values were obtained:
SH3-2 domain of NCK1 = molecular target: T2, SH3-2 domain of NCK1 (Homo sapiens, UniProt P16333); assay: Isothermal titration calorimetry (ITC) binding to NCK1 SH3-2 domain; conditions: Modified MD18/MD20 peptides; ITC, 25 °C, pH 8.0
T2 construct: To amplify the NCK1 SH3-2 domain, the primers; 10xHis tag with TEV site (vector pSF-OXB20-NH2-10HIS) (N, cleaved yes); made in house; host or cells: E. coli C43(DE3)
Description: Human PTP1B cDNA (NM_002827) and human NCK1 cDNA (NM 006153) were obtained (Origene, MD, USA). PTP1B Primers were designed to amplify the ORFs with added homology to the cut vector (EcoRI-digested pSF-OXB20-NH2-10HIS) in the forward primer sequence. To amplify full-length PTP1B, the primers ptp1b_FL_fwd ([…]) (SEQ ID NO: 159) and ptp1b_FL_rev ([…]) (SEQ ID NO: 160) were used. To amplify truncations of PTP1B, the following primer pairs were used: ptp1b_FL-Fwd and one of Ptplb_323stop_rev (gtgcaggaggagttcgaatt[…]) (SEQ ID NO: 161), ptp1b_344stop_rev ([…]) (SEQ ID NO: 162) or ptp1b_278stop_rev([…]) (SEQ ID NO: 163). To amplify the NCK1 SH3-2 domain, the primers ncklsh32_fwd ([…]) (SEQ ID NO: 164) and ncklsh32_rev ([…]) (SEQ ID NO: 165) were used. The amplified fragments were purified using a DNA clean-up kit according to manufacturer's instructions (QIAquick PCR purification kit, Qiagen).
To produce and purify fusion proteins, a culture was inoculated with 1% of overnight-cultured inoculum. Protein expression was carried out under the conditions described above, scaled up as necessary. Cells expressing the recombinant proteins were harvested in 50 mL tubes by centrifugation and stored at −80 °C. Cells containing the expressed gene product were thawed over ice and resuspended in Extraction buffer (10 mM Tris, pH 7.4 or 10 mM Sodium Phosphate, pH 8.0; 300 mM NaCl, 1 mM DTT or TCEP; 0-10% glycerol and 1 μg lysozyme) and sonicated over ice (4 °C) for 3 min total using pulses of 5 s with 15 s intervals, using a wide probe at 15 amplitude microns (Soniprep 150, MSE). Insoluble material was removed from the lysate by centrifugation at 20K rpm for 20-60 min at 4 °C. Supernatant was filtered through a 0.22 μm PVDF filter membrane and applied to 1-2 5 mL HisTrap FF Crude (Cytiva) prepacked Ni columns and connected to an AKTA explorer. After thorough washing with binding buffer (10 mM Tris, pH 7.4 or 10 mM Sodium Phosphate, pH 8.0; 300 mM NaCl; 1 mM DTT or TCEP and 25 mM Imidazole), protein was eluted using elution buffer (10 mM Tris, pH 7.4 or 10 mM Sodium Phosphate, pH 8.0; 150-300 mM NaCl; 1 mM DTT or TCEP and 250 mM Imidazole). Fractions containing protein of interest were confirmed by SDS PAGE. Protein was diluted with GF buffer (10 mM Tris, pH 7.4 or 10 mM Sodium Phosphate, pH 8.0; 150-300 mM NaCl) and subjected to TEV protease treatment overnight at 4-10 °C. Following proteolytic digestion, HIS-tag and TEV protease were removed by filtration through a clean 5 mL HisTrap FF Crude (Cytiva) prepacked Ni column. Protein was concentrated on a PES ultrafiltration device by centrifugation at 4000 rpm at 4 °C, and protein was polished via a HiPrep S-100 26/60 (Cytiva) using GF buffer (as described above). Purified proteins were concentrated using ultrafiltration, and protein concentration was determined using ultraviolet-visible spectroscopy. The integrity and identity of all proteins were verified by mass spectrographic analysis.
Isothermal titration calorimetry (ITC) was used to determine binding affinities for peptides against the SH3-2 domain of NCK1. Experiments were conducted at 25 °C using either a MicroCal iTC200 or MicroCal PEAQ-ITC calorimeter. The buffer used for all ITC experiments was 10 mM sodium [COMPOUND LEFT OUT] mM sodium chloride (pH=8.0). A series of peptides (concentration 3-7.5 mM) were titrated in to NCK1 SH3-2 domain (concentration 0.125-0.3 mM) using the following conditions: one injection of 0.2 μL followed by 19 injections of 2 μL, 120-150 seconds spacing between injections, at 25 °C. The data were fit using analysis software provided by the manufacturer and affinity values were calculated. The best fitting occurred when the number of sites was between 0.8 and 1.2. The experiments were repeated twice for a total of three times, and the average binding affinity for each peptide was generated. […]

NCK1 SH3-2 domain [1] = molecular target: T1, NCK1 SH3-2 domain; assay: ITC
NCK1 SH3-2 domain [2] = molecular target: T1, NCK1 SH3-2 domain; assay: ITC
NCK1 SH3-2 domain [3] = molecular target: T1, NCK1 SH3-2 domain; assay: ITC

| Molecule | Kd (NCK1 SH3-2 domain [1]) [µM] | Kd (NCK1 SH3-2 domain [2]) [µM] | Kd (NCK1 SH3-2 domain [3]) [µM] | further results |
| --- | --- | --- | --- | --- |
| H-PRPPKR-NH2 [MH080, H-PRPPKR-NH2] |  |  |  | Kd (SH3-2 domain of NCK1): > 1000 µM |
| Ac-PPRPPFR-NH2 [MH105] | < 600 |  |  |  |
| Ac-PPPRPPKR-NH2 [MH024] |  | < 300 |  |  |
| Ac-VPRPPKR-NH2 [MH123] |  |  | < 300 |  |
| Ac-PPRPPQR-NH2 [MH088] | < 300 |  |  |  |
| Ac-PPRPPSR-NH2 [MH052] | < 300 |  |  |  |
| Ac-PPEHIPPPPRPPKR-NH2 [MH030] |  | < 300 |  |  |
| Ac-PPRPPLR-NH2 [MH102] | < 300 |  |  |  |
| Ac-PRPP-NH2 [MH021] |  | > 1000 |  |  |
| Ac-PPRPPGR-NH2 [MH094] | > 600 |  |  |  |
| PKR [MH014] |  | > 1000 |  |  |
| Ac-CPRPPKR-NH2 [MH070] |  |  | < 300 |  |
| Ac-RPRPPKR-NH2 [MH068] |  |  | < 300 |  |
| Ac-EPRPPKR-NH2 [MH071] |  |  | < 300 |  |
| Ac-PRPPK-NH2 [MH022] |  | > 1000 |  |  |
| Ac-PPRPPTR-NH2 [MH116] | < 300 |  |  |  |
| Ac-YPRPPKR-NH2 [MH119] |  |  | < 300 |  |
| Ac-TPRPPKR-NH2 [MH113] |  |  | < 300 |  |
| Ac-FPRPPKR-NH2 [MH073] |  |  | < 300 |  |
| Ac-PEHIPPPPRPPKR-NH2 [MH029] |  | < 300 |  |  |
| Ac-RPPK-NH2 [MH016] |  | > 1000 |  |  |
| PPK [MH015] |  | > 1000 |  |  |
| Ac-NPRPPKR-NH2 [MH069] |  |  | < 300 |  |
| Ac-PPRPPRR-NH2 [MH048] | < 300 |  |  |  |
| Ac-RPPKR-NH2 [MH018] |  | > 1000 |  |  |
| Ac-HIPPPPRPPKR-NH2 [MH027] |  | < 300 |  |  |

| Molecule | Kd (NCK1 SH3-2 domain [1]) [µM] | Kd (NCK1 SH3-2 domain [2]) [µM] | Kd (NCK1 SH3-2 domain [3]) [µM] | further results |
| --- | --- | --- | --- | --- |
| RPP [MH020] |  | > 1000 |  |  |
| Ac-SPRPPKR-NH2 [MH074] |  |  | < 300 |  |
| Ac-PPRPPPR-NH2 [MH107] | < 300 |  |  |  |
| Ac-GPRPPKR-NH2 [MH091] |  |  | < 300 |  |
| Ac-PPKR-NH2 [MH017] |  | > 1000 |  |  |
| Ac-PPRPPVR-NH2 [MH126] | < 300 |  |  |  |
| Ac-MPRPPKR-NH2 [MH109] |  |  | < 300 |  |
| Ac-KPRPPKR-NH2 [MH103] |  |  | < 300 |  |
| PRP [MH019] |  | > 1000 |  |  |
| Ac-HPRPPKR-NH2 [MH072] |  |  | < 300 |  |
| Ac-PPRPPMR-NH2 [MH112] | < 300 |  |  |  |
| Ac-PPRPPYR-NH2 [MH122] | < 300 |  |  |  |
| Ac-PPRPPCR-NH2 [MH054] | < 300 |  |  |  |
| Ac-WPRPPKR-NH2 [MH117] |  |  | < 300 |  |
| Ac-EHIPPPPRPPKR-NH2 [MH028] |  | < 300 |  |  |
| Ac-PPRPPDR-NH2 [MH085] | < 600 |  |  |  |
| Ac-PPPPRPPKR-NH2 [MH025] |  | < 300 |  |  |
| Ac-IPPPPRPPKR-NH2 [MH026] |  | < 300 |  |  |
| Ac-QPRPPKR-NH2 [MH086] |  |  | < 300 |  |
| Ac-DPRPPKR-NH2 [MH083] |  |  | < 300 |  |
| Ac-PPRPPWR-NH2 [MH050] | < 300 |  |  |  |
| Ac-LPRPPKR-NH2 [MH099] |  |  | < 600 |  |
| Ac-IPRPPKR-NH2 [MH095] |  |  | < 300 |  |
| Ac-PPRPPER-NH2 [MH051] | < 300 |  |  |  |
| Ac-PPRPPHR-NH2 [MH049] | < 300 |  |  |  |
